Assay results taken from patent publication US20090239794A1, “HCV F PROTEIN AND USES THEREOF” (priority 2004, published 2009).
“And” between values parts separate entries of the source, which are not always exact repeats. Equal entries are not always repeated.

Tested on: C57Bl/6 mice
Assay: Protocol 1: ARFP immunization of mice, total anti-ARFP Ig ELISA
[1] = individual mice 31-45, 1st immunization (day 0), listed as ARFP
[2] = individual mice 31-45, 2nd immunization (day 13), listed as ARFP
[3] = individual mice 31-45, 3d immunization (day 35), listed as ARFP
[4] = individual mice 31-45, Sacrifice (day 53), listed as ARFP

Experimental: Plates were blocked for 2 h/4° C. with 200 μl per well of 5 mg/ml bovine serum albumin (BSA) in 100 mM NaHCO3 pH 8.6, and were washed 6 times with 10 mM tris base, 150 mM NaCl, 0.05% Tween-20 pH 7.4 (1×TBST). […] After 90 min, optical density was measured at 410 nm in a MR7000 spectrophotometer (Dynatec, Chantilly, Va.).
In a first set of experiments, induction of ARFP-specific humoral (i.e. antibody) immune responses was tested as follows.
Protocol 1. […] Ten 5-week old female C57Bl/6 mice were injected with 100 μl phosphate-buffered saline and were used as controls. An identical immunization procedure was repeated on day 13, and again on day 35. 200 μl of blood was obtained by maxillary bleeding prior to each immunization (days 0, 13, and 35). Mice were sacrificed by CO2 asphyxiation and bled by cardiac puncture on day 53. All blood samples were centrifuged and sera was collected and frozen at −80° C. until used. Total immunoglobulin (Ig) responses (IgA, IgM, and IgG) were tested by enzyme-linked immuno-sorbent assay (ELISA) as described in Example 1, except that alkaline phosphatase-conjugated anti-mouse polyvalent immunoglobulins (G, A, M) (A-0162, Sigma, St. Louis, Mo.) were used instead of alkaline phosphatase-conjugated monoclonal anti-human IgG (A-2064, Sigma). […] Optical density was measured at 410 nm (Table 4). […] The ELISA threshold value was set at 3 times the OD410 measured in the negative control with the highest readout (highlighted in Table 6).

B1: Fmut8Δ11: truncated recombinant HCV-1a F protein lacking the first 11 N-terminal residues shared with core; SEQ ID NO: 12; produced in E. coli (protein)
chain: PNVTPTVAHRTSSSRVAVRSLVEFTCCRAGALDWVCARRGRLPSGRNLEVDVSLSPRHVGPRAGPGLSPGTLGPSMAMRAADGRDGSCLPVALGLVGAPQTPGVGRAIWVRSSIPSRAASPTSWGTYRSSAPPLEALPGPWRMASGFWRTA
modifications: Hepatitis C virus
ARFP-specific Ig titer, mean+/−standard deviation (before the 2nd immunization): 10.00+/−27.08 | anti-ARFP Ig titer, mean+/−standard deviation (day 35): 1400+/−419.5 | anti-ARFP Ig titer, mean+/−standard deviation (day 53): 1547+/−199.6 | Titer (anti-ARFP Ig ELISA) (individual mice 31-45, 1st immunization (day 0)): 0 | ELISA OD410, serum dilution 1/50 [1]: 0.211 and 0.209 and 0.199 and 0.218 and 0.323 and 0.278 and 0.229 and 0.166 and 0.236 and 0.243 and 0.247 and 0.208 and 0.206 and 0.205 and 0.217 | ELISA OD410, serum dilution 1/100 [1]: 0.128 and 0.115 (2×) and 0.174 and 0.208 and 0.186 and 0.171 and 0.152 and 0.161 (2×) and 0.145 and 0.134 and 0.132 and 0.142 and 0.127 | ELISA OD410, serum dilution 1/200 [1]: 0.123 and 0.150 and 0.128 and 0.136 (2×) and 0.114 and 0.111 and 0.121 and 0.113 (2×) and 0.104 and 0.117 and 0.164 and 0.144 and 0.140 | ELISA OD410, serum dilution 1/400 [1]: 0.132 and 0.164 and 0.114 and 0.118 and 0.116 and 0.121 and 0.133 and 0.115 and 0.104 and 0.110 and 0.120 and 0.128 and 0.191 and 0.138 and 0.126 | ELISA OD410, serum dilution 1/800 [1]: 0.119 and 0.138 and 0.113 and 0.118 and 0.115 (2×) and 0.117 and 0.128 and 0.108 and 0.103 and 0.105 and 0.123 and 0.134 and 0.137 and 0.114 | ELISA OD410, serum dilution 1/1600 [1]: 0.138 and 0.122 and 0.109 (2×) and 0.110 and 0.116 and 0.124 and 0.108 and 0.106 and 0.107 and 0.105 and 0.119 and 0.129 and 0.127 and 0.114 | ELISA OD410, serum dilution 1/50 [2]: 0.732 and 0.272 and 0.750 and 0.293 and 0.231 and 0.965 and 0.137 and 0.916 and 0.132 and 0.13 and 0.186 and 0.049 and 0.046 and 0.048 and 0.045 | ELISA OD410, serum dilution 1/100 [2]: 0.306 and 0.117 and 0.197 and 0.157 and 0.138 and 0.890 and 0.113 and 0.742 and 0.112 and 0.116 and 0.105 and 0.045 and 0.053 and 0.048 and 0.046 | ELISA OD410, serum dilution 1/200 [2]: 0.165 and 0.113 and 0.166 and 0.127 and 0.160 and 0.815 and 0.108 and 0.441 and 0.107 (2×) and 0.111 and 0.102 and 0.798 and 0.116 and 0.123 | ELISA OD410, serum dilution 1/400 [2]: 0.147 and 0.110 (2×) and 0.154 and 0.121 and 0.117 and 0.677 and 0.328 and 0.107 and 0.105 and 0.115 and 0.101 and 0.279 and 0.103 and 0.120 | ELISA OD410, serum dilution 1/800 [2]: 0.124 and 0.106 (5×) and 0.137 and 0.123 and 0.125 and 0.454 and 0.105 and 0.219 and 0.099 and 0.097 and 0.273 | ELISA OD410, serum dilution 1/1600 [2]: 0.120 (2×) and 0.118 (2×) and 0.119 and 0.590 and 0.104 and 0.171 and 0.105 and 0.108 and 0.103 and 0.096 and 0.223 and 0.110 (2×) | Titer (anti-ARFP Ig ELISA) [2]: 0 (13×) and 100 and 50 | ELISA OD410, serum dilution 1/50 [3]: 3.652 and 3.551 and 3.142 and 3.623 and 3.509 and 3.334 and 3.530 and 3.887 and 3.464 and 3.796 and 1.628 and 1.467 and 2.140 and 2.336 and 2.453 | ELISA OD410, serum dilution 1/100 [3]: 3.642 and 2.683 and 3.700 and 2.841 and 3.563 and 3.625 and 3.306 and >4.000 (2×) and 3.808 and 1.093 and 1.941 and 2.487 and 1.264 and 2.058 | ELISA OD410, serum dilution 1/200 [3]: 3.616 and 2.046 and 3.630 and 2.088 and 3.556 and 3.596 and 2.436 and 3.957 and 3.541 and >4.000 and 3.494 and 2.657 and 1.722 and 0.993 and 1.772 | ELISA OD410, serum dilution 1/400 [3]: 3.569 and 1.681 and 3.296 and 1.522 and 3.465 and 3.590 and 1.859 and 3.799 and 3.582 and 3.896 and 3.238 and 2.397 and 1.929 and 0.725 and 1.607 | ELISA OD410, serum dilution 1/800 [3]: 3.434 and 1.072 and 3.166 and 0.937 and 3.213 and 3.438 and 1.297 and 3.425 and 3.053 and 2.776 and 2.442 and 2.015 and 1.185 and 0.508 and 1.517 | ELISA OD410, serum dilution 1/1600 [3]: 3.521 and 0.641 and 3.190 and 0.590 and 3.181 and 3.455 and 0.931 and 3.139 and 2.783 and 1.989 and 1.713 and 1.578 and 0.957 and 0.408 and 1.453 | Titer (anti-ARFP Ig ELISA) [3]: >1600 (12×) and 800 (2×) and 200 | ELISA OD410, serum dilution 1/50 [4]: 2.023 and 2.008 and 1.658 and 1.054 and 1.709 and 1.411 and 1.314 and 1.736 and 2.224 and 1.741 and 1.006 and 1.424 and 1.613 and 1.434 and 1.373 | ELISA OD410, serum dilution 1/100 [4]: 2.028 and 1.542 and 1.830 and 1.646 and 1.839 and 1.829 and 1.483 and 2.139 and 1.904 and 1.714 and 1.872 and 1.790 and 1.912 and 1.489 and 1.880 | ELISA OD410, serum dilution 1/200 [4]: 2.202 and 2.602 and 1.876 and 1.837 and 1.805 and 2.091 and 1.948 and 2.168 and 2.422 and 1.540 and 1.773 and 1.658 and 1.724 and 1.471 and 2.006 | ELISA OD410, serum dilution 1/400 [4]: 2.376 and 2.547 and 1.889 and 1.913 and 1.776 and 2.225 and 1.925 and 2.356 and 2.456 and 1.266 and 1.783 and 1.907 and 1.312 and 1.223 and 1.919 | ELISA OD410, serum dilution 1/800 [4]: 2.490 and 1.574 and 1.874 and 1.814 and 1.617 and 2.117 and 1.671 and 1.664 and 2.196 and 0.928 and 1.825 and 2.059 and 1.478 and 1.136 and 2.197 | ELISA OD410, serum dilution 1/1600 [4]: 2.209 and 1.970 and 2.157 and 1.987 and 1.674 and 2.269 and 1.574 and 1.671 and 1.659 and 0.648 and 1.749 and 2.062 and 1.233 and 1.157 and 1.672 | Titer (anti-ARFP Ig ELISA) [4]: >1600 (14×) and 800
